In the supplement of paper PMC9170038:

System: MS2 coat protein
Test: apparent KD of MS2 coat protein; designed switch direction (-1 OFF switch, 1 ON switch): -1; higher = weaker reporter binding
Procedure, shortened: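 Three titration conditions were used: no input, 200 uM small-molecule ligand, and an oligonucleotide input. In each, SNAP-549-labelled MS2 coat protein was raised from 0.7 or 1.5 nM, doubling, to 3 µM over designed RNA switches transcribed on Illumina chips by stalled E. coli RNA polymerase. Curve fits of normalised cluster fluorescence gave values whose per-design median over clusters is the apparent KD.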

[1] = Eterna round: R95, input ligand: FMN 200 uM
[2] = Eterna round: R95, input ligand: microRNA oligo, concentration not stated
[3] = Eterna round: R95, input ligand: none
[4] = input ligand: microRNA oligo, concentration not stated

Sequence | apparent KD of MS2 coat protein (input ligand: FMN 200 uM) [nM] | apparent KD of MS2 coat protein (input ligand: none) [nM] | apparent KD of MS2 coat protein [1] [nM] | apparent KD of MS2 coat protein [2] [nM] | apparent KD of MS2 coat protein [3] [nM] | apparent KD of MS2 coat protein [4] [nM]
GGAAGGAGUGUCAGGAUAUCCGGAGGGAAACCUCCGGAGAAGGGACAUGAGGAUCACCCAUGUAGAGGAAGGAG [AK-MS2ROC-r4-Bmoexclusion4-9] (Eterna round: R97, puzzle: Brourd's mod of Exclusion 4) | 561 | 441 |  |  |  | 
GCACGGUAAGUGAGGAUAUACCUCUGGAUACAGAGGUAGAAGGCACAUGAGGAUCACCCAUGUCUAAACCGUGC [Fiskers BMX 4 - 82] (puzzle: Brourd's mod of Exclusion 4) |  |  | 24.9 | 18.6 | 18 | 
AAAACGUCAGGAUAUCCAAUAUAUGACAUGAGGAUCACCCAUGUUUCCACUCGUACCUCCGGAGAAGGGACUUAUA [Ex5 #83] (Eterna round: R97, puzzle: Exclusion 5) | 43.9 | 46.2 |  |  |  | 
CUGAUGUGAGGAUAUCUAAAAGAAACUGGGCAAAUACCCAGAGAGAAGGCACAUGAGGAUCACCCAUGUAACGA [Anedin] (puzzle: Exclusion 4) |  |  |  | 20.9 |  | 
UUGAGCAGACGGAGAUCCAACAUGAGGAUCACCCAUGUCUCAAAAGCUUUUUGCUCAUCUUAUCGUACCUUGGUGCU [Mat - Sensor v3 - turn-off var 1 - JL Mod - D15] (puzzle: Sensor v3, turn-off variant 1) |  |  | 155 | 9.75 | 302 | 
GUCGUGCGGCAGUGCUGUACGAGUACAUGAGGAUCACCCAUGUAGGAUAUGGUUCGUUUUGCGUGCUAGAAGGGCGUGCGUUGA [Excl-NG3-LRO20] (Eterna round: R96, puzzle: Exclusion NG 3) | 20 | 22 |  |  |  | 14
AAGAAACGAGGAUAUACAGUUGAGUGAGAGAGGGAAGUGUGACAUGAGGAUCACCCAUGUAGAAGGCGUGAGAG [JR_Exclu2_Sub087] (puzzle: Exclusion 2) |  |  | 49.1 | 40.4 | 76.8 | 
ACAUGUAUUGCAGGAUAUGGGACACAUGAGGAUCACCCAUGUGACUACAUGUCAUGCCACGGGUCUCAGAAGGGUAUGUACAUG [Ex NG2 #41] (Eterna round: R96, puzzle: Exclusion NG 2) | 23.3 | 14.9 |  |  |  | 12.1
AAUAAUACAGGAUAUACAGUUUAUUACAUGAGGAUCACCCAUGUUCUUCAAUGUAUAUAAGUAGAAGGGUAAGGAA [EX-5 Malc#1] (puzzle: Exclusion 5) |  |  | 50.9 | 25.1 | 24.3 | 
GGAUCGAGUGUGAGGAUAUGCUGGUCCUAAGAUCAGCAGAAGGCACAUGAGGAUCACCCAUGUGAAAACGGUCC [Mat - Exclusion 4 - JL Mod - D71] (Eterna round: R96, puzzle: Brourd's mod of Exclusion 4) | 183 | 29.3 |  |  |  | 24.2
UGAUCUUUUGUUAGGAUAUGCUGUUUUUUUUUACAGCAGAAGGGACAUGAGGAUCACCCAUGUCUUGUCAUAAA [Magic-05] (puzzle: Brourd's mod of Exclusion 4) |  |  |  | 12.4 |  | 
GGUCGACAUGAGGAUCACCCAUGUUAGGAUAUUAGCCAAUGGUCUCGUUAUGAGUCAUUAAGAAGGAACAUGCU [Eternabot (L1) Solution 37] (Eterna round: R97, puzzle: Exclusion 1) | 18 | 14.9 |  |  |  | 
UAUAUAUAGUAAGGAUAUGUAUUAGUUUUAUAAACAGAAGGUACUGACAUGAGGAUCACCCAUGUUUUAGUGUGGGCAUGUAGA [JMF's solution 74] (Eterna round: R96, puzzle: Exclusion NG 1) |  |  |  |  |  | 76.6
GCCAGAGGAGGAUAUCUAAUAUAUCACAUGAGGAUCACCCAUGUCCAGCGAAAGCUGGAGGGAGAAGGCCUCUGGC [Fiskers Ex 5 - 23] (Eterna round: R96, puzzle: Exclusion 5) | 74.8 | 252 |  |  |  | 172
UUUAUCCGAGGAUAUACAGAAUGAAUGUGAAAUGAAUGAUGACAUGAGGAUCACCCAUGUAGAAGGCGGAUAUA [Default title] (Eterna round: R97, puzzle: Exclusion 2) | 404 | 57.8 |  |  |  | 
CUUUUGUGAGGAUAUGGUCUCGAUGACAUGAGGAUCACCCAUGUAACAUGGGACUUGUGACUAGAAGGCACUAACG [JR_Ex5_Sub024] (Eterna round: R97, puzzle: Exclusion 5) | 22.6 | 16.4 |  |  |  | 
CCGGCUUAGCAGGAUAUAGGAGUCGAUAGACACCUAGAAGGGCUAACAUGAGGAUCACCCAUGUGUCCUACCGG [Fiskers Ex 6 - 100] (puzzle: Exclusion 6) |  |  | 65 | 25.9 | 30.7 | 

Sequence | apparent KD of MS2 coat protein (input ligand: FMN 200 uM) [nM] | apparent KD of MS2 coat protein (input ligand: none) [nM] | apparent KD of MS2 coat protein [1] [nM] | apparent KD of MS2 coat protein [2] [nM] | apparent KD of MS2 coat protein [3] [nM] | apparent KD of MS2 coat protein [4] [nM]
ACCUCACAUGAGGAUCACCCAUGUCAGGAUAUGUACCCGAUCAAGUCAGAGAUUGGGAGCAGAAGGGACUGCGG [Leesla] (puzzle: Exclusion 1) |  |  |  | 104 |  | 
UUUGUUUAUGUAGGAUAUGCCUGGCGUGCCUUCGCAGAAGGACAUGAGGAUCACCCAUGUAUUGCGGUCUGCGUUCAGAUCGCC [salish99_ExNG1_r4_028] (Eterna round: R96, puzzle: Exclusion NG 1) | 22.6 | 21 |  |  |  | 16.1
CAGUACUGAGGAUAUACAUGAGGAUCACCCAUGUGUUCCGGCUAGGAAACUAGCAAAAGUAGAAGGCAGUACUG [salish99_ex3_r3_079] (puzzle: Exclusion 3) |  |  | 368 | 30.8 | 28.5 | 
UUUAAUUUUUUUUUUUUACAAGCUUUUUGCUCGUCUUAUACAUGAGGAUCACCCAUGUGAAUGGGAGGUAAAUUAUC [JMF 73] (puzzle: Sensor v3, turn-off variant 2) |  |  | 175 | 192 | 116 | 
UUGUACAUAGGAUAUAGUUGUUUGUACAUGAGGAUCACCCAUGUUAUGUAUGUUUUGCUUCUAGAAGGAUGUUGUU [JR_E5_Sub004] (Eterna round: R96, puzzle: Exclusion 5) | 28.5 | 34.5 |  |  |  | 25.8
GCCUACCAGCUAGGAUAUGCAGUACAGUAAAAUGUAGAAGGAGCACGAUCCAGACAUGAGGAUCACCCAUGUGGGCGGCAGGCA [Raartive] (Eterna round: R96, puzzle: Exclusion NG 1) | 19.7 | 22.8 |  |  |  | 17
CAGUACUGAGGAUAUACAUGAGGAUCACCCAUGUGGAGAGGAAAAGGAAGAAAAGAAGGUAGAAGGCGGUGCUG [JR_Ex3_Sub042] (Eterna round: R97, puzzle: Exclusion 3) | 196 | 40.8 |  |  |  | 
ACGUUCAUUGAACAUGAGGAUCACCCAUGUGGCCUCCGGGUGGAGGAUAUGCACCAGGCCGAGGUGUAGAAGGCCAUAUACCGA [Riraed] (Eterna round: R96, puzzle: Exclusion NG 3) | 155 | 81.4 |  |  |  | 49
UGAUGACAUGAGGAUCACCCAUGUCAGGAUAUGCUUCGGCUUCGGAAAUGAAGUUGAAGUAGAAGGGACUGUCG [-27.1, -24.1 kcal, A 28% sequence 3 bis] (Eterna round: R97, puzzle: Exclusion 1) | 37.7 | 27.8 |  |  |  | 
GAACCUUGAGGAUAUACAUAACAACAAAGCCUCACGUGCCAACAUGAGGAUCACCCAUGUAGAAGGCAAGCCAA [Mod R3 Insanara 9 - Jieux - Exclusion 2] (Eterna round: R97, puzzle: Exclusion 2) | 19 | 16.2 |  |  |  | 
AUAAGGUGAGGAUAUCCACGACCCUACAUGAGGAUCACCCAUGUAUACAGUACGUGUAGAGGAGAAGGUACAUGUC [Eternabot (L2) Solution 78] (Eterna round: R97, puzzle: Exclusion 5) | 28.3 | 29.3 |  |  |  | 
AAAAGGUGAGGAUAUGAGGCGCCGGGCCGGUUGGUGCGGAUUCAGAAGGCACAUGAGGAUCACCCAUGUAAUAA [Excls4-II] (puzzle: Exclusion 4) |  |  | 52.2 | 38.7 | 50.4 | 
CUUUUGUGAGGAUAUCAGUAGUAGAACAAUAGUACUACUACUGAGAAGGCACAUGAGGAUCACCCAUGUUCUUC [Fiskers Ex 4 Super stable 44 mod 5] (puzzle: Exclusion 4) |  |  |  | 27.8 |  | 
GGAAGACAUGAGGAUCACCCAUGUAAGGAUAUCGAAGGUAUGAGAGGAAAGAGGUUAACGAGAAGGUACAGGUG [JR_Exclu1_Sub099] (puzzle: Exclusion 1) |  |  | 107 | 82 | 102 | 
UCACGGGACUAAGGAUAUACAUGAACUAUUAUUGUAGAAGGUAGAAUGUUAGAUUAUACACUAAACAUGAGGAUCACCCAUGUU [JR_ExcNG1_Sub094] (Eterna round: R96, puzzle: Exclusion NG 1) |  |  |  |  |  | 15.9
AACUCACGUUCAGGAUAUCGCGUUCCAAAGACAUGAGAAGGGAACAUGAGGAUCACCCAUGUGCCCGGUCUCAGACCGGGCUUC [Cetein] (Eterna round: R96, puzzle: Exclusion NG 1) | 328 | 88.8 |  |  |  | 76
AAGAAACAUGAGGAUCACCCAUGUGAGGAUAUGUAAAAUAAAAUAAAAGAAAUAAUAAACAGAAGGCACAAAGG [Mat - Mod of Hog D16] (puzzle: Exclusion 1) |  |  | 47.2 | 29.8 | 41.8 | 
